Reference: publication PMC314469, “Protein Interaction Networks by Proteome Peptide Scanning” (PLoS Biology, 2004)

T1: Abp1 SH3 (ABP1_YEAST), P15891
T1 chain: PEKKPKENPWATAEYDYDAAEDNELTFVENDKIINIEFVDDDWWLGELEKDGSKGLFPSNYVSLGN


Target: T1, Abp1 SH3 (ABP1_YEAST), P15891
Experiment: SPOT array

Binder | normalised SPOT signal, Boehringer light units (BLU); mean over the file's lines of this peptide
VYYVSKAKLQPAKP [YAR007C 254-267] | 135
YKWTVPAPVGPRP [YHR158C 222-234] | 1300
WTLNKDKIAHPVRP [YBR276C 624-637] | 1090
YEHLTSVKIVPQRP [YAL054C 40-53] | 113
VVVEFSSPNIAKP [YHR091C 181-193] | 86.6
VTKRPATSTPPRKP [YJR043C 299-312] | 812
YKVYFSTPRDVKP [YBR024W 225-237] | 114
YKPWSAWSYLPPKP [YDL035C 229-242] | 208
YIRNAVKENFPEKP [YBR137W 45-58] | 118
YDVIEVVPEPGKP [YDR301W 1057-1069] | 37
YLNESFVMQQPIKP [YGR067C 417-430] | 179
VVRIKGINKIPPKP [YGL076C 86-99] | 615
VVDIEVPMEYPFKP [YDR177W 53-66] | 40.3
WDGVIPTPAIIKP [YDL140C 556-568] | 78
YKWTIPQPIGRRP [YGR238C 182-194] | 3200
WSIKLWDLSKPSKP [YAR003W 94-107] | 135
VVVMSTSDERPFRP [YGL165C 142-155] | 146
VTDFNYTPSHQKP [YIL106W 99-111] | 79
YNESAPLQPFPERP [YFL041W 454-467] | 15.5
VSSSSTIPVLPKP [YJL201W 369-381] | 77.3
WSRHFFLPRSKRP [YBL012C 87-99] | 324
WRSKRIEQLFPVRP [YDL150W 191-204] | 201
VVDGNLAHETPVKP [YGR188C 429-442] | 93
YAEILKNRMNPEKP [YBL034C 847-860] | 100

Next, values leading:

normalised SPOT signal, Boehringer light units (BLU); mean over the file's lines of this peptide | Binder
793 | VSSTGSKSGPPPRP [YNL138W 345-358]
179 | YASPMYDFLYPFRP [YOR002W 18-31]
311 | YFPSKTVGSHPRKP [YPL162C 135-148]
93.8 | VVYFSSIPPYMKP [YNR054C 115-127]
29.6 | VWYISYGEWGPRRP [YNL052W 72-85]
34.2 | YASALKEMTHPIKP [YLR239C 24-37]
88.1 | VTDLIKFPLMDKP [YNR011C 599-611]
140 | YDNKVEEGSKPKKP [YOR168W 668-681]
2600 | VVRTSKHWVLPPRP [YKL109W 62-75]
112 | VVSSKGTSTYPVKP [YJR105W 266-279]
223 | YNPYGISPNHARP [YJR059W 184-196]
56.1 | VSSSEIESVEPLKP [YMR219W 1122-1135]
304 | YFTSSYFPDDRRP [YKL004W 102-114]
66.3 | WIRSTLNHIIPRRP [YML061C 4-17]
275 | YNYSFQFDKFPRKP [YLR392C 110-123]
62.3 | YEATPFDPITVKP [YNL330C 3-15]
164 | YKDSFYKEMTPSKP [YOR177C 24-37]
1240 | WRYLPAPPVSIRP [YOR116C 258-270]
